Data: patent US20100184088A1 (ONCOTHERAPY SCIENCE, published 2010)
Values belong to the binder of their own block, whether it stands above or below them.

Tests used:
HA-tagged SMYD3 = molecular target: T1, HA-tagged SMYD3 (human, UniProt Q9H7B4 1-428); experiment: co-immunoprecipitation (IP anti-HA, immunoblot anti-Flag), HEK293 cells
T1 construct: also called ZNFN3A1; not shown: HA tag
T1 sequence: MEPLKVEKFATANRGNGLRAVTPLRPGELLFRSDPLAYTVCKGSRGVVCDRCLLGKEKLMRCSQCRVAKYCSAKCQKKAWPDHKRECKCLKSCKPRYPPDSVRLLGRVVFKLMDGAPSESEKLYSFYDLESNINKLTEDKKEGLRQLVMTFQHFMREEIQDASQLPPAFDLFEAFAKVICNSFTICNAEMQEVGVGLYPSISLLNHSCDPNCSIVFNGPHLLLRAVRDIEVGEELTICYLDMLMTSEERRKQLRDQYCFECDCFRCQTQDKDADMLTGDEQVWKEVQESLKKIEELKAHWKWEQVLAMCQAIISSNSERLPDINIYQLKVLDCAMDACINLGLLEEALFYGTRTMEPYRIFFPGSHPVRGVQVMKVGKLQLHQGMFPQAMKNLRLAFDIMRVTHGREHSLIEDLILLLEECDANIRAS
Description: Extraction of protein, IP, and Western blot analysis were performed according to methods described in the literature (Hamamoto R et al., S Nature cell biology 2004, 6(8): 731-40). Immunoblot analysis was carried out with anti-SMYD3 (Abcam, Cambridge, Mass.), anti-HA (Sigma, St Louis, Mo.), anti-Flag (Sigma), anti-GST (B D Pharmingen, San Diego, Calif.), anti-beta-actin (Sigma), or anti-phospho-Tyrosine (PY20; Sigma) antibodies. HRP-conjugated second antibody was used for the ECL Detection System (Amersham Biosciences, Piscataway, N.J.). Recombinant histone H3 and VEGFR1 (3108) were purchased from Upstate Biotechnology (Lake Placid, N.Y.) and Calbiochem (San Diego, Calif.), respectively.
Since VEGFR1 was methylated by SMYD3, the inventors investigated whether SMYD3 interacts with VEGFR1. The present inventors expressed Flag-tagged cytoplasmic regions of VEGFR1 together with HA-tagged SMYD3 in HEK293 cells. Immunoprecipitation with anti-HA antibody, and subsequent immunoblot analysis with anti-Flag antibody disclosed that SMYD3 associates with VEGFR1#1 (codons 800-1000) but not VEGFR1#2 or VEGFR1#3 (FIG. 3a). Consistently, IP with anti-Flag antibody and subsequent immunoblot analysis with anti-HA antibody corroborated the interaction between SMYD3 and VEGFR1#1 (FIG. 3a). […]

[1] = molecular target: T2, recombinant GST-fused VEGFR1#1 (codons 800-1000)
T2 chain: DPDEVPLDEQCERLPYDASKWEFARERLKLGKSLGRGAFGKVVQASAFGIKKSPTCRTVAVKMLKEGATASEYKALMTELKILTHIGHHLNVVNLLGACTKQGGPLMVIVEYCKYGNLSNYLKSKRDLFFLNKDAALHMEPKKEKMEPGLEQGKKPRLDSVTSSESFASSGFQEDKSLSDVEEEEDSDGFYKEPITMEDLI

HA-tagged VEGFR1 = molecular target: T3, HA-tagged VEGFR1 (human, UniProt P17948 800-1338, limits assumed); experiment: co-immunoprecipitation (anti-HA or anti-Flag IP, western blot), HEK293 cells
T3 construct: also called HA-VEGFR1; cytoplasmic domain of VEGFR1; not shown: HA tag (pCMV-HA vector)
T3 sequence: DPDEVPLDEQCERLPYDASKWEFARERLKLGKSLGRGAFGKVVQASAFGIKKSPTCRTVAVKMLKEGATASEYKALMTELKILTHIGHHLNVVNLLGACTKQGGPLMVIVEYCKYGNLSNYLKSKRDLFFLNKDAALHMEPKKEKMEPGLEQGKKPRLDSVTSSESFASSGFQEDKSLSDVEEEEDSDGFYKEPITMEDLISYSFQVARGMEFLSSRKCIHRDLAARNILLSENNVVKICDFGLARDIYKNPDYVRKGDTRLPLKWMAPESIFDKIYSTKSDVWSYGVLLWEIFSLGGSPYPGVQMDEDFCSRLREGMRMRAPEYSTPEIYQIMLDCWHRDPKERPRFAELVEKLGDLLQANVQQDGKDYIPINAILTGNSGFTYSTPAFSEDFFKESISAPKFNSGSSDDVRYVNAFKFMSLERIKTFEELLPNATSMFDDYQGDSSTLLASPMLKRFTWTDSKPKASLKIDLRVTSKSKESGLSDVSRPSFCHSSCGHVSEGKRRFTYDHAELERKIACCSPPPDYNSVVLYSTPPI
From the text: FIG. 3 depicts the interaction between SMYD3 and VEGFR1. Part a depicts the interaction between SMYD3 and VEGFR1, examined by a co-immunoprecipitation assay using extract from HEK293 cells expressing HA-tagged SMYD3 and different regions of Flag-tagged VEGFR1 (VEGFR1#1, #2, and #3). Part b depicts the interaction of endogenous SMYD3 with VEGFR1. Whole cell extracts from SNU423, SW480, and MCF7 cells expressing both SMYD3 and VEGFR1 were precipitated with anti-SMYD3 antibody. The precipitants were immunoblotted with anti-VEGFR-1 antibody (upper panel) or anti-SMYD3 antibody (lower panel). Part c depicts the association of VEGFR1 with the SET domain of SMYD3. Wild type or deleted forms of Flag-tagged SMYD3 (N-20, delta 2, or delta 3) were co-expressed with HA-tagged VEGFR1 in HEK293 cells. IP was performed with either anti-HA or anti-Flag antibody, and the precipitants were analyzed by western blot analysis with anti-Flag (upper panel) or anti-HA (lower panel) antibody. Part d depicts the interaction of the cytoplasmic region of VEGFR1 with the SET domain of SMYD3 in vivo. Flag-tagged wild type or the SET domain of SMYD3 was co-expressed with HA-tagged VEGFR1 in HEK293 cells. Extracts from the cells were precipitated with anti-Flag (upper panel) or anti-HA (lower panel) antibodies, and the precipitants were analyzed by western blot analysis with anti-HA antibody. […]

B1: Flag-tagged VEGFR1#2 (codons 1000-1200) (receptor)
chain: ISYSFQVARGMEFLSSRKCIHRDLAARNILLSENNVVKICDFGLARDIYKNPDYVRKGDTRLPLKWMAPESIFDKIYSTKSDVWSYGVLLWEIFSLGGSPYPGVQMDEDFCSRLREGMRMRAPEYSTPEIYQIMLDCWHRDPKERPRFAELVEKLGDLLQANVQQDGKDYIPINAILTGNSGFTYSTPAFSEDFFKESISA
notes: Cytoplasmic fragment of VEGFR1 expressed in HEK293 cells; also called flag-VEGFR1#2; not shown: Flag tag (3xFlag vector)
binding result (HA-tagged SMYD3): no binding

B3: Flag-tagged wild-type SMYD3 (p3XFLAG-CMV-SMYD3) (protein)
chain: T1 sequence
in vitro MTase assay, methylation compared to recombinant histone H3 [1]: Approximately three-fold higher methylation of VEGFR1#1 was detected as compared to recombinant histone H3 in vitro (data not shown)

Second part, the binder after the results:

binding result (HA-tagged SMYD3): no binding
B2: Flag-tagged VEGFR1#3 (codons 1200-1338) (receptor)
chain: APKFNSGSSDDVRYVNAFKFMSLERIKTFEELLPNATSMFDDYQGDSSTLLASPMLKRFTWTDSKPKASLKIDLRVTSKSKESGLSDVSRPSFCHSSCGHVSEGKRRFTYDHAELERKIACCSPPPDYNSVVLYSTPPI
notes: Cytoplasmic fragment of VEGFR1 expressed in HEK293 cells; also called flag-VEGFR1#3; not shown: Flag tag (3xFlag vector)

binding result (HA-tagged VEGFR1): no binding
B4: Flag-tagged SMYD3-delta 3 (codons 250-428) (enzyme)
chain: RKQLRDQYCFECDCFRCQTQDKDADMLTGDEQVWKEVQESLKKIEELKAHWKWEQVLAMCQAIISSNSERLPDINIYQLKVLDCAMDACINLGLLEEALFYGTRTMEPYRIFFPGSHPVRGVQVMKVGKLQLHQGMFPQAMKNLRLAFDIMRVTHGREHSLIEDLILLLEECDANIRAS
notes: Deleted form of SMYD3 lacking the SET domain; also called flag-SMYD3-D3; not shown: Flag tag
